Source: US6759384
No end group written: not given here.

B1: Ac-G-Y-I-R-G-NH2 (peptide)
peptide: Ac-GYIRG-NH2
B2: Ac-G-Y-I-R-L-NH2 (peptide)
peptide: Ac-GYIRL-NH2
B3: E-Y-I-R-K-NH2 (peptide)
peptide: EYIRK-NH2
B4: G-Y-I-R-G-NH2 (peptide)
peptide: GYIRG-NH2
B5: G-Y-I-R-G (peptide)
peptide: GYIRG
modifications: not checked
B6: G-Y-I-R-H-NH2 (peptide)
peptide: GYIRH-NH2
B7: G-Y-I-R-I-NH2 (peptide)
peptide: GYIRI-NH2
B8: G-Y-I-R-K-NH2 (peptide)
peptide: GYIRK-NH2
B9: G-Y-I-R-L-NH2 (peptide)
peptide: GYIRL-NH2
B10: G-Y-I-R-T-NH2 (peptide)
peptide: GYIRT-NH2
B11: W-I-R-E-K-NH2 (peptide)
peptide: WIREK-NH2

Molecular target: T1, human factor Xa (Enzyme Research Laboratories, Inc.) (human), P00742
T1 chain 1: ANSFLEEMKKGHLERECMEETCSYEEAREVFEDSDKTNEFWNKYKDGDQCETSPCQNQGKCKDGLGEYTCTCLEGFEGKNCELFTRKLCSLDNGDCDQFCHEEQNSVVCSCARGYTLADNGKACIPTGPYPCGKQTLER
T1 chain 2: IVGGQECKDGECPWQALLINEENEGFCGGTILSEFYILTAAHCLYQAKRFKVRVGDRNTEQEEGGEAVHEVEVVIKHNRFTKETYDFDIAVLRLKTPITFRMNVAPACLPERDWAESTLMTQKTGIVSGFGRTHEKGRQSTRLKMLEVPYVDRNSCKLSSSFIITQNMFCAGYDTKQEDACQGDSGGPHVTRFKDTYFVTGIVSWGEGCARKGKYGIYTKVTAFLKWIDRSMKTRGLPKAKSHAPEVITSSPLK
Test: chromogenic FXa inhibition

Row | Binder | Ki
1 | B1 | < 100 µM
2 | B2 | < 100 µM
3 | B3 | < 100 µM
4 | B4 | < 100 µM
5 | B5 | < 100 µM
6 | B6 | < 100 µM
7 | B7 | < 100 µM
8 | B8 | < 100 µM
9 | B9 | < 100 µM
10 | B10 | < 100 µM
11 | B11 | < 100 µM
